Several values for one entry are separate records, joined by “and”; a condition that tells them apart may be missing. Equal values may be shown once. Read-outs that look alike come from different tables or passages of the source.
B1: SES-2 (single epitope scaffold 2) (designed binder)
chain: AVEDALKKAEAAGDEAAIARAEILLARVEEAREILANPNVDPAVGWALLAAVAPEIAALAGGSY
B2: L9 Fab (Fab, V domains shown)
VH: QVKLVESGGGVVQPGRSLRLSCEASGFIFSTYGMHWVRQAPGKGLEWVAVIWFDGSNIYYADSVKGRFTISRDNSKNTVFMQMDSLRAEDTAVYYCHRNFYDGSGPFDYWGQGTLVTVSS
VL: DIQMTQSPSTLSASVGDRVTITCRASQFISRWLAWYQQKPGKAPKLLIYKASSLESGVPSRFSGSGSETHFTLTISSLQPDDVATYYCQEYTSYGRTFGQGTKVEIK

Experiments:
Test in all cases: SPR
[1] = target: B2
[2] = target: B2; remark: listed apart in the source
[3] = target: SES-1
[4] = target: SES-1; remark: listed apart in the source

Binder | koff [1] [s⁻¹] | Kd [2] [nM] | Kd [3] | Kd [4] [nM]
B1 | 0.014 | 42 | – | –
B2 | – | – | 78 nM and 84 nM | 78
